Test results taken from patent EP1947117A2 (THE UNITED STATES GOVERNMENT as represented by THE …, dated 2008).

Legend:
[1] = biological target: human TSH receptor on CHO cells (CHO-hTSHR clone JP09) (human, UniProt P16473 21-764); assay: cell-based or functional assay
[2] = biological target: hCG receptor on MA-10 cells (transformed murine Leydig cells) (murine, UniProt P30730 27-700); assay: cell-based or functional assay
Chain of hCG receptor on MA-10 cells (transformed murine Leydig cells) (P30730 27-700): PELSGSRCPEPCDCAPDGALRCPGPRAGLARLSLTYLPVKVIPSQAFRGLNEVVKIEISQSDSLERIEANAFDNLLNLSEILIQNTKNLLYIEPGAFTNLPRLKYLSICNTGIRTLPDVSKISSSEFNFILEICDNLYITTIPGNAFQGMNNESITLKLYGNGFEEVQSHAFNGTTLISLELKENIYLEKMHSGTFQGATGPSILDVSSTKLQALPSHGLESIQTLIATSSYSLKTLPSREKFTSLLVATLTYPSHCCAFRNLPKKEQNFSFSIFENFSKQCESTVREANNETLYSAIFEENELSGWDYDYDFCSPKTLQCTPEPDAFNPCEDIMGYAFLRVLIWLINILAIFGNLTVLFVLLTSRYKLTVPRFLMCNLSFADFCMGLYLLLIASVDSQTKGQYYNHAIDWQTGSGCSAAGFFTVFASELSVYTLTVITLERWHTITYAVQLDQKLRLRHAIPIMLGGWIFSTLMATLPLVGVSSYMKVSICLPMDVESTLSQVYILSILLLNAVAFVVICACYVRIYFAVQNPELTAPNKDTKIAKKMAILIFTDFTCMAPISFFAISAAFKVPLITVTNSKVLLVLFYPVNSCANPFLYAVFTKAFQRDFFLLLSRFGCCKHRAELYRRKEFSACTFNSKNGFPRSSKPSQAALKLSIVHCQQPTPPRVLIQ

B1: WT-hTSH (wild-type recombinant human thyroid stimulating hormone) (ligand)
chain 1: not shown
chain 2: FCIPTEYTMHIERRECAYCLTINTTICAGYCMTRDINGKLFLPKYALSQDVCTYRDFIYRTVEIPGCPLHVAPYFSYPVALSCKCGKCNTDYSDCIHEAIKTNYCTKPQKSY
cAMP stimulation in JP09 cells, EC50 [1]: 6.7 ng/mL
cAMP stimulation in JP09 cells, relative potency (WT=1) [1]: 1 fold (WT=1)

B2: WT-hCG (wild-type recombinant human chorionic gonadotropin) (ligand)
chain 1: not shown
chain 2: SKEPLRPRCRPINATLAVEKEGCPVCITVNTTICAGYCPTMTRVLQGVLPALPQVVCNYRDVRFESIRLPGCPRGVNPVVSYAVALSCQCALCRRSTTDCGGPKDHPLTCDDPRFQDSSSSKAPPPSLPSPSRLPGPSDTPILPQ
Progesterone synthesis in MA 10 cells, EC50 [2]: 6.9 ng/mL
